Laboratory results reported in paper PMC10968512, “Cry Toxins Use Multiple ATP-Binding Cassette Transporter Subfamily C Members as Low-Efficiency Receptors in Bombyx mori” (Biomolecules, 2024).

B1: Cry9Aa toxin (trypsin-activated) (domain or fragment)
chain: YPLANNPYSSALNLNSCQNSSILNWINIIGDAAKEAVSIGTTIVSLITAPSLTGLISIVYDLIGKVLGGSSGQSISDLSICDLLSIIDLRVSQSVLNDGIADFNGSVLLYRNYLEALDSWNKNPNSASAEELRTRFRIADSEFDRILTRGSLTNGGSLARQNAQILLLPSFASAAFFHLLLLRDATRYGTNWGLYNATPFINYQSKLVELIELYTDYCVHWYNRGFNELRQRGTSATAWLEFHRYRREMTLMVLDIVASFSSLDITNYPIETDFQLSRVIYTDPIGFVHRSSLRGESWFSFVNRANFSDLENAIPNPRPSWFLNNMIISTGSLTLPVSPSTDRARVWYGSRDRISPANSQFITELISGQHTTATQTILGRNIFRVDSQACNLNDTTYGVNRAVFYHDASEGSQRSVYEGYIRTTGIDNPRVQNINTYLPGENSDIPTPEDYTHILSTTINLTGGLRQVASNRRSSLVMYGWTHKSLARNNTINPDRITQIPLTKVDTRGTGVSYVNDPGFIGGALLQRTDHGSLGVLRVQFPLHLRQQYRIRVRYASTTNIRLSVNGSFGTISQNLPSTMRLGEDLRYGSFAIREFNTSIRPTASPDQIRLTIEPSFIRQEVYVDRIEFIPVNPT
B2: Cry1Aa toxin (trypsin-activated) (domain or fragment)
chain: not shown
B3: Cry8Ca toxin (trypsin-activated) (domain or fragment)
chain: ISAQDAVGTGIDIVSTIISGLGIPVLGEVFSILGSLIGLLWPSNNENVWQIFMNRVEELIDQKILDSVRSRAIADLANSRIAVEYYQNALEDWRKNPHSTRSAALVKERFGNAEAILRTNMGSFSQTNYETPLLPTYAQAASLHLLVMRDVQIYGKEWGYPQNDIDLFYKEQVSYTARYSDHCVQWYNAGLNKLRGTGAKQWVDYNRFRREMNVMVLDLVALFPNYDARIYPLETNAELTREIFTDPVGSYVTGQSSTLISWYDMIPAALPSFSTLENLLRKPDFFTLLQEIRMYTSFRQNGTIEYYNYWGGQRLTLSYIYGSSFNKYSGVLAGAEDIIPVGQNDIYRVVWTYIGRYTNSLLGVNPVTFYFSNNTQKTYSKPKQFAGGIKTIDSGEELTYENYQSYSHRVSYITSFEIKSTGGTVLGVVPIFGWTHSSASRNNFIYATKISQIPINKASRTSGGAVWNFQEGLYNGGPVMKLSGSGSQVINLRVATDAKGASQRYRIRIRYASDRAGKFTISSRSPENPATYSASIAYTNTMSTNASLTYSTFAYAESGPINLGISGSSRTFDISITKEAGAANLYIDRIEF
B4: Cry1Da toxin (trypsin-activated) (domain or fragment)
chain: ETGNTVADISLGLINFLYSNFVPGGGFIVGLLELIWGFIGPSQWDIFLAQIEQLISQRIEEFARNQAISRLEGLSNLYKVYVRAFSDWEKDPTNPALREEMRIQFNDMNSALITAIPLFRVQNYEVALLSVYVQAANLHLSILRDVSVFGERWGYDTATINNRYSDLTSLIHVYTNHCVDTYNQGLRRLEGRFLSDWIVYNRFRRQLTISVLDIVAFFPNYDIRTYPIQTATQLTREVYLDLPFINENLSPAASYPTFSAAESAIIRSPHLVDFLNSFTIYTDSLARYAYWGGHLVNSFRTGTTTNLIRSPLYGREGNTERPVTITASPSVPIFRTLSYITGLDNSNPVAGIEGVEFQNTISRSIYRKSGPIDSFSELPPQDASVSPAIGYSHRLCHATFLERISGPRIAGTVFSWTHRSASPTNEVSPSRITQIPWVKAHTLASGASVIKGPGFTGGDILTRNSMGELGTLRVTFTGRLPQSYYIRFRYASVANRSGTFRYSQPPSYGISFPKTMDAGEPLTSRSFAHTTLFTPITFSRAQEEFDLYIQSGVYIDRIEFIPVTAT

What follows are binders tested against T1, Bombyx mori ABC transporter subfamily C member 1, BmABCC1-FLAG (Bombyx mori) (assay: SPR; BIACORE; BmABCC immobilised on a CM5 sensor chip; toxins (or BSA) in PBST (PBS with 0.005% Tween 20) at 500 and/or 1000 nM; 120 s association, 240 s dissociation; fitted with two-state reaction models (BIAevaluation ver.4.1)). Settings: both partners purified.
T1 construct: BmABCC1 (MRP1) of Bombyx mori, protein XP_012546136.1, cDNA XM_012690682.3 amplified from midgut cDNA; also called MRP1 (name in the NCBI)
T1 sequence (main, as listed by the source): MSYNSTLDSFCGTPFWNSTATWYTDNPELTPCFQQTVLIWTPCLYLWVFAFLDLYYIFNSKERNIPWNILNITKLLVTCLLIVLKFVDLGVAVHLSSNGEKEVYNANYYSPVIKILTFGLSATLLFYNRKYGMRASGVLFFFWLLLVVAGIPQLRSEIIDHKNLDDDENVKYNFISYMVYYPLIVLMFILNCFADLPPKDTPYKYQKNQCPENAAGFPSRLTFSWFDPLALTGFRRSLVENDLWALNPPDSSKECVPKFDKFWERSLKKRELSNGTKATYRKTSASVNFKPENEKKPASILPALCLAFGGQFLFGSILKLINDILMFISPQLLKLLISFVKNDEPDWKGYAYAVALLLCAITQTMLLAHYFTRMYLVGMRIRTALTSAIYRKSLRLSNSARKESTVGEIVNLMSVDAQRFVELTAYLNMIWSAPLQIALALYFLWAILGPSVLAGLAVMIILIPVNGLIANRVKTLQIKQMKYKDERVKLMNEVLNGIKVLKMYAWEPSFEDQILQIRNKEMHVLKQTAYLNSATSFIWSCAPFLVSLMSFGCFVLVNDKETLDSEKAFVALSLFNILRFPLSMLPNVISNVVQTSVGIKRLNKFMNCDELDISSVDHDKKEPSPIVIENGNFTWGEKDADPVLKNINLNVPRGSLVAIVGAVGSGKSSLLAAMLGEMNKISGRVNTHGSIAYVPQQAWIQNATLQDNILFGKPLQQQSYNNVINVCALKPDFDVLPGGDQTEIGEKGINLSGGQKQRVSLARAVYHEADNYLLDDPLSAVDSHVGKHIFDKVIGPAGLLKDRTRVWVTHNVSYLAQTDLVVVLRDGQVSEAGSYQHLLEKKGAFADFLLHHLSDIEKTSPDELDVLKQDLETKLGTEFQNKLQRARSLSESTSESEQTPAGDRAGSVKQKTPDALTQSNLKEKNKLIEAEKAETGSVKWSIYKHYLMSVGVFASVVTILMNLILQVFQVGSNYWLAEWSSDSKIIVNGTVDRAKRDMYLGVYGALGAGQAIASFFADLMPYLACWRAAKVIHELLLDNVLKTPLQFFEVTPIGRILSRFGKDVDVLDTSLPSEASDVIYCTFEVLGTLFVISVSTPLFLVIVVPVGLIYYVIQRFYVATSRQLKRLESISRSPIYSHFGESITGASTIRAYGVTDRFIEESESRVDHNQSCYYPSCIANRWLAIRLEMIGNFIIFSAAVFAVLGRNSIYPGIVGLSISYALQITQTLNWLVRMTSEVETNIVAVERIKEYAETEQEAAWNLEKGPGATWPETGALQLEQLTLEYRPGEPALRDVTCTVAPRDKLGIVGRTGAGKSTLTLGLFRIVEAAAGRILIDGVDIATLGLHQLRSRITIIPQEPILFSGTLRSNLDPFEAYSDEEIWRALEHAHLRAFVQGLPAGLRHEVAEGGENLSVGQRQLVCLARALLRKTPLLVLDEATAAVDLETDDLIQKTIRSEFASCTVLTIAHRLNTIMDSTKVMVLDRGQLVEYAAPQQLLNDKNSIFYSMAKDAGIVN
B1 was tested, and the Kd was 1.89 nM. In the case of B2, the Kd is reported as 46100 nM. In the case of B3, the Kd is reported as 34.8 nM. B4 gave a Kd of 415 nM.

The binders below were run against T2, Bombyx mori ABC transporter subfamily C member 4, BmABCC4-FLAG (Bombyx mori) in the same assay as above. Settings: both partners purified.
T2 construct: BmABCC4 (MRP4) of Bombyx mori, protein XP_021205339.2, cDNA XM_021349664.2 amplified from midgut cDNA; also called MRP4 (name in the NCBI)
T2 sequence (main, as listed by the source): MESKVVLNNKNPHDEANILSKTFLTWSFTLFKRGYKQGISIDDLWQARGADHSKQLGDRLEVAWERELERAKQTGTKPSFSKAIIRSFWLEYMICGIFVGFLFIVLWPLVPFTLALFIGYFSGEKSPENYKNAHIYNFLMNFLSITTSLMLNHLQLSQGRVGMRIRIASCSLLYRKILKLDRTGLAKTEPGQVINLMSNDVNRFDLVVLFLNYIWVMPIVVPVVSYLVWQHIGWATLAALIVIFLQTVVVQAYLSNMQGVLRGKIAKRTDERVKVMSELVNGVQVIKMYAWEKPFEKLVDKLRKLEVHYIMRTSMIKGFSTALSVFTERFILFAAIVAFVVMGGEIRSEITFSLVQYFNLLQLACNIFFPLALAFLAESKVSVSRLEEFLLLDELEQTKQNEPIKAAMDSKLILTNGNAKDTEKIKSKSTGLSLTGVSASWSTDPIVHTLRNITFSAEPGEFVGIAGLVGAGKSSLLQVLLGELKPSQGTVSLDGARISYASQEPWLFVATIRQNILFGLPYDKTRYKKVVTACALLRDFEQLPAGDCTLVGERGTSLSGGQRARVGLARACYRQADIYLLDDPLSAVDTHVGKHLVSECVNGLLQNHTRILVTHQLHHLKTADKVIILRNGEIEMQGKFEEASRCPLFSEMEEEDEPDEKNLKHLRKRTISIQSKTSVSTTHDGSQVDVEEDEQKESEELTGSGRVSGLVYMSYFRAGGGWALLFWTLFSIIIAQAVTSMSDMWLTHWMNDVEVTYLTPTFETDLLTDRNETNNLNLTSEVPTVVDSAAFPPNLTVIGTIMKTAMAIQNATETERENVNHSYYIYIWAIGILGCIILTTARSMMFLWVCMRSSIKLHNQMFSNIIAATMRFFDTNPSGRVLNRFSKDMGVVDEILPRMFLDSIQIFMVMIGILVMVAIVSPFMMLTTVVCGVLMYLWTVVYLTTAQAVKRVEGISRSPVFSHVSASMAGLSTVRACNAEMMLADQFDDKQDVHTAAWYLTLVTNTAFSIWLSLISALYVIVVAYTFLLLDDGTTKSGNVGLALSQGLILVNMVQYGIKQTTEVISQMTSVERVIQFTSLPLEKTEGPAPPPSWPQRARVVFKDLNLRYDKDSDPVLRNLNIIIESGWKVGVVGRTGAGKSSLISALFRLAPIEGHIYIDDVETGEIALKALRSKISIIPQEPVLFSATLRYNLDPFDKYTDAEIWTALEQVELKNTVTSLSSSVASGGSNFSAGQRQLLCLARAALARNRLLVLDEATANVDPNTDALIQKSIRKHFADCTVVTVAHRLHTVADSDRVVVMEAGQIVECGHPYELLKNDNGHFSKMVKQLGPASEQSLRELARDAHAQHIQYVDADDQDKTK
With B2 the Kd was 267 nM. Binder B3 has a Kd of 61.7 nM. Binder B4 has a Kd of 63.7 nM.
